Assay results taken from publication PMC3839580 (Journal of the American Chemical Society, 2013).
Where “and” joins values, the source holds several entries; their conditions need not be identical. Identical values can stand only once.

Tests used:
plasma total cholesterol = conditions: cited from earlier work
[1] = Size exclusion chromatography of DMPC-based peptide nanoparticles; assay type: physicochemical; conditions: construct 300 μM, PBS, overnight, Superdex 200, standard curve of four globular proteins
[2] = thought: two apoA-I molecules (10 helices/molecule) reside in discoidal HDL particles; cited from earlier work
[3] = cited from earlier work

apoA-I: Apolipoprotein A-I, the primary structural protein within HDL particles
reduction in plasma cholesterol levels, in words (plasma total cholesterol): neither apoA-I nor rHDLs cause significant reduction
SEC Stokes diameter [1]: 15 nm and 10 nm
helices per particle (value in parentheses) [2]: 20
plasma half-life in mice [3]: 11 h
